# Test results published in paper PMC8751750, “Effect of using different co-ligands during ^99mTc-labeling of J18 peptide on SK-MES-1 cell binding and tumor targeting” (Iranian Journal of Basic Medical Sciences, 2021).
# “Also recorded” adds a separate entry of the source. Peptide text beside a SMILES is read from it.
# What was measured:
# SK-MES-1 cells [1] = test: Specific binding (blocking with unlabeled peptide) on SK-MES-1 cells; parameters: species or system human; conditions: listed as 99mTc-peptide 2
# Method: (§1) The in vitro receptor binding of the^ 99mTc-labeled peptide was evaluated using SK-MES-1 a human lung squamous cell carcinoma, SKOV-3 human ovarian carcinoma, and A-549 human lung adenocarcinoma epithelial and MCF-7 human breast cancer cell lines. All cell lines were kept at 37 °C in a 5% CO2 incubator and were maintained in Dulbecco’s DMEM-high glucose supplemented with 10% FBS. Cells were plated in 24-well plates at a density of 4×10^5 cells/well in 1 ml of complete medium and incubated for 24 hr to allow in cells to settle. Following a wash with cold serum-free media or PBS, 40 nM radiolabeled peptides in the full medium were given to the cells, which were then incubated at 37 °C for 2 hr. Finally, cells in culture plates were trypsinized and released, and radioactivity in the cells was measured. To determine specific versus nonspecific binding, SK-MES-1 cells were seeded into 12-well plates at a density of 5×10^5 cells/well and incubated with unlabeled peptides at a concentration 500-fold higher than the labeled peptide for 20 min at 37 °C, followed by the addition of the radiolabeled peptide to the wells. These cells were incubated for 2 hr at 37 °C in a humidified incubator.
# A-549 cells = conditions: previously reported, listed as 99mTc-HYNIC-(Ser)3-J18 (tricine/EDDA); cited from earlier work
# From the text: Table 1 Overview of affinity binding ^99mTc-HYNIC-(Ser)3-J18 on SK-MES-1 vs A-549 cell line | column: A-549 / Tricine; A-549 / tricine/EDDA
# [2] = tested on: SK-MES-1, A-549, SKOV-3 and MCF-7 cells; test: In vitro receptor binding of radiolabeled peptides on four cell lines; parameters: species or system human; conditions: 40 nM radiolabeled peptide, 2 hr at 37 °C
# Method: as §1
# [3] = Biodistribution in SK-MES-1 xenografted nude mice; format: in vivo, female C57 nu/nu mice; conditions: female, C57 nu/nu, mouse, in vivo, iv, total radioactivity, SK-MES-1 xenograft nude mice, n=4
# Method: (§2) The tumor biodistribution and targeting properties of the radiolabeled peptides were carried out in female C57 nu/nu mice bearing SK-MES-1 (Pasture Institute, North Branch and Amol, Iran). The tumor was grafted by subcutaneous injection of SK-MES-1 cells at a concentration of 4×10^6 cells/mouse into the right front flank of the mice and left to grow over a period of 20 days. The mice were ready for biodistribution when tumor size reached 0.7–1 cm^3 in mean diameter, all mice received intravenous co-injections of (^99mTc) Tc-HYNIC-(Ser)3-J18 peptide 1 or (^99mTc )Tc-HYNIC-(Ser)3-J18 peptide 2 (1 μg in 100 μl buffer) after 1, 2, and 4 hr post-injection, respectively (n=4 mice per group). In order to measure the radiopeptides’ nonspecific uptake of the radiopeptides, one group of four animals was injected with 300 μg of non-labeled peptide in a 50 μl buffer. The mice in the blocking group were euthanized 2 hr after the injection. Mice organ and tissue samples were collected, and radioactivity uptake was calculated as a percentage of the administered dose per gram tissue (%ID/g).
# SK-MES-1 tumors = test: Biodistribution in SK-MES-1 xenografted nude mice; format: in vivo, female C57 nu/nu mice; conditions: SK-MES-1 xenograft nude mice, mean ± SD, n=4
# Method: as §2
# SK-MES-1 cells [4] = test: Saturation binding assay on SK-MES-1 cells; parameters: species or system human
# Method: The affinities of (^99mTc) Tc-HYNIC-peptides were determined utilizing a saturation binding experiment with cultivated cells in vitro for determination of the dissociation constant as KD and the number of binding sites per cell (Bmax). SK-MES-1 cells were incubated for 2 hr at 37 °C with increasing concentrations of (^99mTc) Tc- HYNIC- peptides (0.1, 0.5, 1, 2.5, 5, 25, and 50 nM). One dish served as a blocking sample, and it was immersed in a blocking solution containing a 500-fold excess of the non-labeled peptide. For each concentration, three dishes were utilized. Following incubation, the media was withdrawn, and the cells were trypsinized and collected for Gamma counter activity measurement. Prism 5 software (Ver. 5.0) was used to examine the particular binding data using nonlinear regression.
# [5] = Biodistribution in normal mice; format: in vivo; conditions: normal female NMRI mice, i.v. 1 μg in 100 μl (18.5 MBq), mean±SD, n=4
# Method: All animal investigations were approved by Mazandaran University of Medical Sciences Research and Ethical Committee in Sari, Iran. Twelve normal female NMRI mice (20–30 g) were randomly divided into three groups of four. 1 μg of (^99mTc) Tc –HYNIC–J18 peptide in 100 μl of buffer (18.5 MBq) was injected into the tail vein. All animals were sacrificed one, four, and twenty-four hours following radiolabeled peptide injection. Mice were euthanized with an appropriate dose of ketamine/xylazine (Sigma, USA) diluted with sterile water (1:3 v/v). Following deep anesthesia, blood was extracted by heart puncture with a 1-mL syringe washed with diluted heparin. Blood, liver, spleen, salivary gland, stomach, kidney, muscle, and bone samples were dissected and weighed, and radioactivity was measured. Except for the intestines, which were computed as a percentage of the injected dose per gram tissue (percent ID/g), the tissue uptake data was calculated as a percentage of the administered dose per total sample.
compound,measurement,setting,value
"CC(C)C[C@H](NC(=O)[C@H](CO)NC(=O)[C@H](CCCNC(=N)N)NC(=O)[C@H](CO)NC(=O)[C@H](CO)NC(=O)[C@H](CO)NC(=O)c1ccc(NN)nc1)C(=O)N[C@@H](Cc1c[nH]c2ccccc12)C(=O)N[C@@H](CO)C(=O)N[C@@H](CC(=O)O)C(=O)N[C@@H](Cc1ccccc1)C(=O)N[C@@H](Cc1ccc(O)cc1)C(=O)N[C@@H](C)C(=O)N[C@@H](CO)C(=O)N[C@@H](C)C(=O)N[C@@H](CO)C(=O)N[C@@H](CCCNC(=N)N)C(=O)NCC(=O)N1CCC[C@H]1C(=O)O [Peptide 2, (^99mTc) Tc-HYNIC-(Ser)3-J18 with tricine/EDDA, metal not drawn] (HELM PEPTIDE1{[NNc1ccc(C(=O)[*:2])cn1].S.S.S.R.S.L.W.S.D.F.Y.A.S.A.S.R.G.P}$$$$V2.0; C-terminus assumed)",reduction of binding by pre-saturation with unlabeled J18 peptide,"SK-MES-1 cells [1]; 500-fold unlabeled peptide 20 min at 37 °C, then radiolabeled peptide 2 hr at 37 °C",7.5 fold
same,"specific binding to SK-MES-1, in words",SK-MES-1 cells [1],high specificity
same,Kd,A-549 cells,4.4 ± 0.8 nM
same,"cellular affinity, in words",[2],strongest cellular affinity for the SK-MES-1 cell line
same,tissue to tissue ratio at 2 h,"[3]; 1 ug, 2 hr, read-out: Tumor/blood ratio",2.96
same,tissue uptake at 2 h,"[3]; 2h-blocked (300 μg non-labeled peptide 0.5 hr before), i.v. 1 μg, mean ± SD, read-out: Tumor uptake",0.43 ± 0.05 %ID/g
same,Intestine uptake (with contents),"SK-MES-1 tumors; 1 hr, i.v. 1 μg in 100 μl",0.78±0.01 percentage of injected dose per whole sample
same,Intestine uptake (with contents),"SK-MES-1 tumors; 2h-blocked (300 μg non-labeled peptide 0.5 hr before), i.v. 1 μg",0.23±0.09 percentage of injected dose per whole sample
same,Intestine uptake (with contents),"SK-MES-1 tumors; 2 hr, i.v. 1 μg in 100 μl",0.53±0.11 percentage of injected dose per whole sample
same,Intestine uptake (with contents),"SK-MES-1 tumors; 4 hr, i.v. 1 μg in 100 μl",0.03±0.01 percentage of injected dose per whole sample
same,Bmax,"SK-MES-1 cells [4]; Figure 4, saturation binding, 2 hr at 37 °C, listed as 99mTc-(EDDA/tricine)-(Ser)3-HYNIC-J18",(1.9±0.3)·10^4 binding sites/cell
same,"binding affinity for SK-MES-1, in words",SK-MES-1 cells [4]; listed as 99mTc-peptide 2,high binding affinity; also recorded: good receptor-binding affinity
same,Kd,"SK-MES-1 cells [4]; saturation binding, 0.1-50 nM, 2 hr at 37 °C, blocking with 500-fold excess non-labeled peptide, three dishes per concentration, Prism 5 nonlinear regression, listed as 99mTc-HYNIC-(Ser)3-J18 (tricine/EDDA)",3.64 ± 0.8 nM
same,Intestine uptake (with contents),[5]; 4 hr,3.63±1.80 percentage of injected dose per whole sample
same,Intestine uptake (with contents),[5]; 24 hr,0.59±0.29 percentage of injected dose per whole sample
